Fewer inactive variants are shown than the library holds.
B1: TPR 5TU (parent)
chain: GGAUCUUCUCGAUCUAACAAAAAAGACAAAUCUGCCACAAAGCUUGAGAGCAUCUUCGGAUGCAGAGGCGGCAGCCUUCGGUGGCGCGAUAGCGCCAACGUUCUCAACUAUGACACGCAAAACGCGUGCUCCGUUGAAUGGAGUUUAUCAUG

Variants of: B1
Assay: polymerase ribozyme fitness, log enrichment relative to wild type (log ratio); higher = more active; in vitro selection for triplet polymerase activity
Method in brief: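 Both subunits of a heterodimeric triplet polymerase ribozyme were given their own mutant library, built by PCR and transcribed. Each library was annealed with a biotinylated primer, the partner subunit and triplets, incubated frozen at −7 °C, and its extended constructs gel-excised, captured on streptavidin beads and amplified by RT-PCR, all in one round done in triplicate. Fitness is the logarithm of genotype enrichment relative to wild-type enrichment, with replicates averaged by inverse-variance weighting. That logarithm is base 2, and Illumina-sequenced genotypes needed ≥10 input reads and ≥1 read per output.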

| Variant | polymerase ribozyme fitness (log ratio) |
| --- | --- |
| GGAUCUUCUCGAUCUAACAAAAAAGACAAAACUGCCACAAAGCUUGACAGCAUCUUCGGAUGCAGAGGCGGCAGCCUUCGGUGGAGCGAUAGCGCCAACGUUCUCAACUAUGACACGCAAAACGCGUGCUCCGUUGAAUGGAGUUUAUCAUG | -2.98 |
| GGAUCUUCUCGAUCUAACAAAAAAGACAAAACUGCCACAAAGCUUGAGAGCAUCUUCGGAUGCAGAGGCGGCAGCCUUCGGUGACGCGAUAGCGCCAACAUUCUCAAGUAUGACACGCAAAAGGCGUGCUCCGUUGAAUGGAGUUUAUCAUG | ≤ -4.2 |
| GGAUCUUCUCGAUCUAACAAAAAAGACAAAACUGCCACAAAGCUUGAGAGCAUCUUCGGAUGCAUAGGCGGCAGCCUUCGGUGGCGCGAUAGGGCCAACGUUCUCAACUAUGACACGCAAAACGCGUGCUCCGUCGAAUGGAGUUUAUCAUG | ≤ -4.2 |
| GGAUCUUCUCGAUCUAACAAAAAAGACAAAACUGCCACAAAGCUUGAGAGCAUCUUCGGAUGCAGAGGCGGCAGCCUUCGGUCGCGCGAUAGCGCCAACGUUCUUAACUAUGACACGCAAAACGCGGGCUCCAUUGCAUGGAGUUUAUCAUG | ≤ -4.2 |
| GGAUCUUCUCGAUCUAACAAAAAAGACAAAACUGCCACAAAGCUUCAGAGCAUCUUCGGAUGCAGAGGCGGCAGCCUUCGGUGGCGCGAUAGCGUCAACGUUCUCAACUAUGACACGCAAAACGCGUGCUCCGUUGAAUGGAGUUUAUCAUG | -1.57 |
| GGAUCUUCUCGAUCUAACAAAAAAGACAAAACUGCCACAAAGCUUGAGAGCAUCUUCCGAAGCAGAGGCGGCAGCCUUCGGUGGCGGGAUAGCGCUAAUGUUCUCAACUAUGAGACGCAAAACGCGUGCUCCGUUGAAUGGAGUUUAUCGUG | ≤ -4.2 |
| GGAUCUUCUCGAUCUAACAAAAAAGACAAAACUGCCACAAAGCUUGAGAAGAUCUUCGAAUGCAGAGCCGGCAGCCUUCGGUGGCCCGAUAGCUCCAACGUUCUCAACUAUGACACGCAAAACUCGUGCUCCGUUGAAUGGAGUUUAUCAUG | ≤ -4.2 |
| GGAUCUUCUCGAUCUAACAAAAAAGACAAAACUGCCACAAAGCUUGAGAGCAUCUUCGGAUGCAGAGGCGGCAGCCUUCGGUGGCGCAAAAGCGCCAACGUUCUCAACUAUGACACGCAAAACGCGUGCUCCAUUGAAUGGAGUUUAUCAUG | ≤ -4.2 |
| GGAUCUUCUCGAUCUAACAAAAAAGACAAAACUGCCACAAAGCUUGAGAGCAUCUUCGGAUGCAGAGCCGGCAGCAUUCGGUGGAGCGAUAGCGCCAACGUUCUCAACUAUGACACGCAAAACGCGUGCUCCGUUGAAUGGAGUUUAUCAUG | ≤ -4.2 |
| GGAUCUUCUCGAUCUAACAAAAAAGACAAAACUGCCACAAAGCUUGAGAGCAUCUUCGGAUGCAGAGGCGGCAGCCUUCGGUGGCGCGAUAGCGCCAACGUUCUCAACUAUGACACGCAAAACGCGUGCUACGUUGAAUGGAGUUUAUCAUG | -1.89 |
| GGAUCUUCUCGAUCUAACAAAAAAGACAAAACUGCCACAAAGCUUGAGAGCAUCUUCGGAUGCAGAGGCGGCAGCCUUCGGUGGCGCGAUAGCGCUAACGUUCUCAACUAUGACCCGCAAAACGCGUGCUCCGUUGAAUGGAGUUCAUCAUG | -0.845 |
| GGAUCUUCUCGAUCUAACAAAAAAGACAAAACUGCCACAAAGCUUGAGAGCAUCUUCCGAUGCAGAGGCGGCAGACUUCGGUGGCGCGAUAGCGCCAACGUUUUCAACAGUGACACGCAAAACGCGUGCUCCGUUGAAUGGAGUUUAUCAUG | ≤ -4.2 |
| GGAUCUUCUCGAUCUAACAAAAAAGACAAAACUGCCACAAAGCUUGAGAGCAUCUUCGGAUGCAGAGGCGGCAGCCUUCGGUGGCGCGAUAGCGCCAACGUUCUCAACUAUGACACGCAAAACGAGUGCUCCGUUGAAUGGAGUUUAUCAUG | 0.0765 |
| GGAUCUUCUCGAUCUAACAAAAAAGACAAAACUGCCACAAAGCUUGAGAGCAUCUUCGGAUGCAGAGGCGGCAGCCUUCGGUGGCACGAUAGCGCCAACGUUCUCAACUAUGACACGCAAAACGCGUGCUCCGCUGAAUGGAGUUUAUCAUG | -0.431 |
| GGAUCUUCUCGAUCUAACAAAAAAGACAAAACUGCCACAAAGCUUGAGAGCAUCUUCGGAUGCAGAGGCGGCAGCCUUCGCUGGCGCGAUAGCGCGAACGUUCUCAACUAAGACACGCAAAACGCAUGCUCCGUUGAAUGGAGUUUAUCAUG | ≤ -4.2 |
| GGAUCUUCUCGAUCUAACAAAAAAGACAAAACUGCCACAAAGCUUGAGACCAUCUUCGGAUGCAGAGGCGGCAGCCUUCGGUGGUGCGAUAGCGCCAACGUUCUCAACUAUGACACGCAAAACGCGUGCUCCGUUGAAUGGAGUUUAUCAUG | -3.83 |
| GGAUCUUCUCGAUCUAACAAAAAAGACAAAACUGCCACAAAGCUUGAGAGCAUCUUCGAAUGCAGAGGCGGCAGCCUUCGGUGACGCGAUAGCGCCAACGUGCUCAACUAUGACACGCAAAACGCGUCCUCCGUUGAAUGGCGUUUAUCAUG | ≤ -4.2 |
| GGAUCUUCUCGAUCUAACAAAAAAGACAAAACUGCCACAAAGCUUGAGAGCAUCUUCGCAUGCAGAGGCGGCAGUCUUCGGUGGCGCGAUUGCGCCAACGUUCUCAACGAUAACACGCAAAACGCGUGCUCCGUUGAAUGGAGUUUAUCAUG | ≤ -4.2 |
| GGAUCUUCUCGAUCUAACAAAAAAGACAAAACUGCCACAAAGCUUGAGAGCAUCUUCGGAUGCAGAGGCGGCAGCCUUCGGUGGCUCGAUAGCGCCAACGUUCUCAACUAUGACACGCAAAACGCGUGCUCCGUUGAAUGGAGUUUAUCAUG | -0.886 |
